According to patent CN114685664A (UNIV INNER MONGOLIA AGRI, dated 2022):
Each block holds one binder with its values, some of them ahead of it.

Assays:
Raji细胞表面CD20蛋白 [1] = biological target: T1, Raji细胞表面CD20蛋白 (human, UniProt P11836 1-297); assay: flow cytometry, FITC-labelled BsNb 100 μg/mL on Raji cells
T1 construct: whole, on cells; Raji cells used as CD20-positive cells; also called Raji细胞表面CD20分子
T1 sequence (looked up): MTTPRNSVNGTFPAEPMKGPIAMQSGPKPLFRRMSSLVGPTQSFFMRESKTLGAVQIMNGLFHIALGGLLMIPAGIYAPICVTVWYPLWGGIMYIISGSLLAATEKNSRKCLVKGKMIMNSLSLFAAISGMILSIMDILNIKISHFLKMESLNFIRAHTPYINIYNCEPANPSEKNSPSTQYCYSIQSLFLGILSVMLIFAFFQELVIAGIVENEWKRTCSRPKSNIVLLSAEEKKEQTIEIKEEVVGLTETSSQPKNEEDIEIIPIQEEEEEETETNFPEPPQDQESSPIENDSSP

人CD20胞外区多肽 [2] = biological target: T2, 人CD20胞外区多肽 (human); assay: ELISA, CD20 extracellular peptide coated at 2.5 μg/mL, BsNb 30 to 5 μg/mL, HRP anti-His detection, OD450
T2 construct: Synthetic 47-residue peptide of the extracellular region of human CD20 (Sangon); also called CD20多肽; CD20抗原
T2 peptide: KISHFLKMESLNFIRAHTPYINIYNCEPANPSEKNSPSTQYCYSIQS

Raji细胞表面CD20蛋白 [3] = biological target: T1, Raji细胞表面CD20蛋白; assay: immunofluorescence on fixed Raji cells, sdAb 10 μg/mL, fluorescent anti-His detection
人CD20胞外区多肽 [4] = biological target: T2, 人CD20胞外区多肽; assay: phage ELISA, CD20 extracellular peptide coated at 2.5 μg/mL, OD450

binding result (Raji细胞表面CD20蛋白 [1]): binds | binding result (人CD20胞外区多肽 [2]): binds
B1: Anti-CD20/CD3 BsNb (bispecific antibody)
chain: EVQLLEEVQLVESGGGLVQPGGSLRLSCAASGFTFDDYGMSWVRQAPGKWLEWVSDISWNGGSTYYADSVKGRFTISRDNAENTLYLQMNSLKPDDTAVYYCAKMGEGGWGANDYWGQGTQVTVSSSGGGGSGGGGSGGGGSMAQVQLQMADVQLVESGGGLVQPGGSLRLSCTAPGFTSNNCGMDWWRQAAGKQREWVSSIATDGSTSYADSVKGRFTISKDKAKDTVFLQMNSLKPEDTAMYNCAMRRWGWGCLGRLWQSDFGYWGQGTQVTVSS
notes: Single chain: anti-CD20 sdAb, linker, anti-CD3 sdAb; also called CD20 sdAb-linker-CD3 sdAb; 抗CD20和CD3双特异性单域抗体

binding result (Raji细胞表面CD20蛋白 [3]): binds | binding result (人CD20胞外区多肽 [4]): binds
B2: sdAb11 (抗CD20单域重链抗体) (VHH)
VHH: DVQLVESGGGLVQPGGSLRLSCTAPGFTSNNCGMDWWRQAAGKQREWVSSIATDGSTSYADSVKGRFTISKDKAKDTVFLQMNSLKPEDTAMYNCAMRRWGWGCLGRLWQSDFGYWGQGTQVTVSS
notes: Expressed in E. coli BL21(DE3) from VHH-pET-25b-SBP and purified on Ni-NTA; also called CD20单域抗体; Anti-CD20 sdAb; not shown: tags from vector pET-25b-SBP (His tag detected with anti-His antibody; SBP)
